Assay results taken from patent US20210347869A1 (UNIVERSITY OF QUEENSLAND, published 2021).

Key:
full-length human tau [1] = biological target: T1, full-length human tau (human, UniProt P10636 2-757); assay: SPR (Biacore S200), single-cycle, biotinylated antibody captured on streptavidin chip, tau as analyte, steady state affinity fit; IgG1 format
T1 construct: also called tau441; human tau isoform 2
Description: (§1) (C) Single-cycle kinetics of AB1 to full-length human tau was determined using surface plasmon resonance. […] (D) The molecular weight (MW), binding affinity (KD) and activity for each of the AB1 antibody formats.
(§2) Surface plasmon resonance measurements were conducted at the Monash Fragment Platform, Monash University, using the Biacore S200 biosensor (GE Healthcare). Biotinylated AB1 was captured on a streptavidin-coated CM5 chip. For biotinylation, AB1 IgG1 (29.5 μM), AB1 IgG2a (32.0 μM), AB1 Fab (22.9 μM) and AB1 scFv (60.4 μM) (in 137 mM NaCl, 2.7 mM KCl, 10 mM Na2HPO4, 1.8 mM KH2PO4) was added in a 1:1 ratio with EZ-link NHS-LC-LC-biotin (Thermo Scientific) and incubated at 25° C. for 1 hr. Antibodies were separated from free-unconjugated biotin using size-exclusion chromatography on a Superdex 200 10/300 GL (GE Healthcare) or Superdex 75 10/300 Increase (GE Healthcare) equilibrated in 137 mM NaCl, 2.7 mM KCl, 12 mM Na2HPO4, 1.8 mM KH2PO4, pH 7.4. Streptavidin was immobilized on the CM5 chip using amine coupling at 37° C. […]

full-length human tau [2] = biological target: T1, full-length human tau; assay: SPR (Biacore S200), single-cycle, biotinylated Fab captured on streptavidin chip, tau as analyte, steady state affinity fit; Fab, not IgG
Description: as §1, §2

full-length human tau [3] = biological target: T1, full-length human tau; assay: SPR (Biacore S200), single-cycle, biotinylated antibody captured on streptavidin chip, tau as analyte, steady state affinity fit; IgG2a format
Description: as §1, §2

T1 sequence (P10636 other isoform, or with tags, fused parts or gaps limits assumed): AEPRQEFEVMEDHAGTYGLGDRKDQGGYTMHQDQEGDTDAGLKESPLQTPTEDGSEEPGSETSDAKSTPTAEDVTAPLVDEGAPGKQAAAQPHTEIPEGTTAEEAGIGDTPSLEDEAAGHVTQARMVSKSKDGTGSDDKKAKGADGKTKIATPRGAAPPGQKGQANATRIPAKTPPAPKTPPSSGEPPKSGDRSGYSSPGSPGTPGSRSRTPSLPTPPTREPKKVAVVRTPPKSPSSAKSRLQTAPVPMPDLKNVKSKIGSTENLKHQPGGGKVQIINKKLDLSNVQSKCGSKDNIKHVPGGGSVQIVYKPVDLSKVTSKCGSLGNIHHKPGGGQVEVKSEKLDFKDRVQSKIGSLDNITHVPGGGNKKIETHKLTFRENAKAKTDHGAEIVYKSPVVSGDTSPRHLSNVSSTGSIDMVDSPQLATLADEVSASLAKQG

B1: AB1 IgG1 (antibody, V domains shown)
VH: QVQLKQSGPGLVQPSQSLSITCTVSGFSLTSYGVHWVRQSPGKGLEWLGVIWRGGSTDYNAAFMSRLSITKDNSKSQVFFKMNSLQADDTAIYYCAKNTNHRYDGYYAMDYWGQGTSVTVS
VL: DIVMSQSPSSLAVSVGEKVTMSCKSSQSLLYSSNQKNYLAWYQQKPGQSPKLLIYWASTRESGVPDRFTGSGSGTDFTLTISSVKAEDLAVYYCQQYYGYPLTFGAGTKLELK
notes: Expressed in Expi-CHO, about 156 kDa; For SPR it was biotinylated with NHS-LC-LC-biotin and captured on streptavidin; also called full-sized murine IgG1
- Kd (full-length human tau [1]): 407 nM

B2: AB1 Fab (Fab, V domains shown)
VH: B1 VH
VL: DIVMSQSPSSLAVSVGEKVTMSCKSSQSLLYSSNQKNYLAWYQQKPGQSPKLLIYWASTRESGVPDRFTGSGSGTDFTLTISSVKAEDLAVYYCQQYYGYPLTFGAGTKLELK
notes: Biotinylated and captured on streptavidin for SPR
- Kd (full-length human tau [2]): 298 nM

B3: AB1 IgG2a (antibody, V domains shown)
VH: B1 VH
VL: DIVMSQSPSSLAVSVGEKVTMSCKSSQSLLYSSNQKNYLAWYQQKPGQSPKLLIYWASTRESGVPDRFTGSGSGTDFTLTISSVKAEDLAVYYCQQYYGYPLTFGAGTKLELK
notes: About 156 kDa; Biotinylated and captured on streptavidin for SPR; also called full-sized murine IgG2a
- Kd (full-length human tau [3]): 381 nM
